Test results published in the Human Domainome abundance scans (Beltran et al. 2025).
± gives the uncertainty stated by the source.

B1: Histone-lysine N-methyltransferase 2A, residues 1148 to 1194; numbered along this chain, Q03164 (parent)
chain: KGRRSRRCGQCPGCQVPEDCGVCTNCLDKPKFGGRNIKKQCCKMRKC

Variants of: B1
Experiment: abundance fitness (aPCA) (normalised: wild type 0, dead -1); higher = more abundant; growth selection in yeast, the domain comes from the species named
Settings: Homo sapiens

Question: For KGRRSRRCGQCPGCQVPEDCGVCTNCLDKPKFGGRNIKKQCCKMRWC [K46W], which abundance fitness is on record?
Answer: The abundance fitness was -0.31 ± 0.14.

Question: With KGRRSRRCGQCPGCQVPEDCGVCTNCLDKPKFGGRNIKKQCCKMRHC [K46H] as the variant, how does the abundance fitness read?
Answer: The abundance fitness was -0.02 ± 0.18.

Question: For KGRRSRRCGQCPGCQVPEDCGVCTNCLDKPKFGGRNIKKQCCKMRRC [K46R], which abundance fitness is on record?
Answer: Its abundance fitness is -0.205 ± 0.09.

Question: With KGRRSRRCGQCPGCQVPEDCGVCTNCLDKPKFGGRNIKKQCCKMRIC [K46I] as the variant, how does the abundance fitness read?
Answer: The abundance fitness was 0.356 ± 0.19.

Question: For KGRRSRRCGQCPGCQVPEDCGVCTNCLDKPKFGGRNIKKQCCKMRGC [K46G], which abundance fitness is on record?
Answer: The abundance fitness was -0.145 ± 0.14.

Question: Which abundance fitness does the source give for KGRRSRRCGQCPGCQVPEDCGVCTNCLDKPKFGGRNIKKQCCKMRSC [K46S] here?
Answer: Its abundance fitness is -0.12 ± 0.11.

Question: Which abundance fitness does the source give for KGRRSRRCGQCPGCQVPEDCGVCTNCLDKPKFGGRNIKKQCCKMRAC [K46A] here?
Answer: Its abundance fitness is 0.206 ± 0.12.

Question: Which abundance fitness does the source give for KGRRSRRCGQCPGCQVPEDCGVCTNCLDKPKFGGRNIKKQCCKMRYC [K46Y] here?
Answer: Its abundance fitness is -0.128 ± 0.16.

Question: Which abundance fitness does the source give for KGRRSRRCGQCPGCQVPEDCGVCTNCLDKPKFGGRNIKKQCCKMRMC [K46M] here?
Answer: Its abundance fitness is 0.074 ± 0.15.

Question: With KGRRSRRCGQCPGCQVPEDCGVCTNCLDKPKFGGRNIKKQCCKMRFC [K46F] as the variant, how does the abundance fitness read?
Answer: Its abundance fitness is -0.21 ± 0.21.

Question: For KGRRSRRCGQCPGCQVPEDCGVCTNCLDKPKFGGRNIKKQCCKMRQC [K46Q], which abundance fitness is on record?
Answer: Its abundance fitness is 0.153 ± 0.12.

Question: Which abundance fitness does the source give for KGRRSRRCGQCPGCQVPEDCGVCTNCLDKPKFGGRNIKKQCCKMRVC [K46V] here?
Answer: Its abundance fitness is 0.039 ± 0.14.

Question: For KGRRSRRCGQCPGCQVPEDCGVCTNCLDKPKFGGRNIKKQCCKMRDC [K46D], which abundance fitness is on record?
Answer: Its abundance fitness is 0.231 ± 0.21.

Question: Which abundance fitness does the source give for KGRRSRRCGQCPGCQVPEDCGVCTNCLDKPKFGGRNIKKQCCKMREC [K46E] here?
Answer: The abundance fitness was 0.105 ± 0.18.

Question: With KGRRSRRCGQCPGCQVPEDCGVCTNCLDKPKFGGRNIKKQCCKMRNC [K46N] as the variant, how does the abundance fitness read?
Answer: The abundance fitness was -0.728 ± 0.3.

Question: With KGRRSRRCGQCPGCQVPEDCGVCTNCLDKPKFGGRNIKKRCCKMRKC [Q40R] as the variant, how does the abundance fitness read?
Answer: Its abundance fitness is -0.229 ± 0.084.

Question: For KGRRSRRCGQCPGCQVPEDCGVCTNCLDKPKFGGRNIKKSCCKMRKC [Q40S], which abundance fitness is on record?
Answer: The abundance fitness was -0.103 ± 0.097.

Question: With KGRRSRRCGQCPGCQVPEDCGVCTNCLDKPKFGGRNIKKYCCKMRKC [Q40Y] as the variant, how does the abundance fitness read?
Answer: Its abundance fitness is -0.493 ± 0.21.

Question: For KGRRSRRCGQCPGCQVPEDCGVCTNCLDKPKFGGRNIKKVCCKMRKC [Q40V], which abundance fitness is on record?
Answer: The abundance fitness was -0.042 ± 0.088.

Question: For KGRRSRRCGQCPGCQVPEDCGVCTNCLDKPKFGGRNIKKWCCKMRKC [Q40W], which abundance fitness is on record?
Answer: Its abundance fitness is -0.545 ± 0.1.

Question: Which abundance fitness does the source give for KGRRSRRCGQCPGCQVPEDCGVCTNCLDKPKFGGRNIKKTCCKMRKC [Q40T] here?
Answer: The abundance fitness was -0.234 ± 0.14.

Question: With KGRRSRRCGQCPGCQVPEDCGVCTNCLDKPKFGGRNIKKQCCLMRKC [K43L] as the variant, how does the abundance fitness read?
Answer: Its abundance fitness is 0.07 ± 0.08.

Question: With KGRRSRRCGQCPGCQVPEDCGVCTNCLDKPKFGGRNIKKQCCQMRKC [K43Q] as the variant, how does the abundance fitness read?
Answer: Its abundance fitness is -0.215 ± 0.12.

Question: Which abundance fitness does the source give for KGRRSRRCGQCPGCQVPEDCGVCTNCLDKPKFGGRNIKKQCCRMRKC [K43R] here?
Answer: The abundance fitness was -0.27 ± 0.076.

Question: Which abundance fitness does the source give for KGRRSRRCGQCPGCQVPEDCGVCTNCLDKPKFGGRNIKKQCCWMRKC [K43W] here?
Answer: The abundance fitness was -0.12 ± 0.093.

Question: Which abundance fitness does the source give for KGRRSRRCGQCPGCQVPEDCGVCTNCLDKPKFGGRNIKKQCCFMRKC [K43F] here?
Answer: The abundance fitness was -0.224 ± 0.097.

Question: For KGRRSRRCGQCPGCQVPEDCGVCTNCLDKPKFGGRNIKKQCCGMRKC [K43G], which abundance fitness is on record?
Answer: The abundance fitness was -0.312 ± 0.098.

Question: For KGRRSRRCGQCPGCQVPEDCGVCTNCLDKPKFGGRNIKKQCCVMRKC [K43V], which abundance fitness is on record?
Answer: Its abundance fitness is 0.108 ± 0.085.

Question: With KGRRSRRCGQCPGCQVPEDCGVCTNCLDKPKFGGRNIKKQCCSMRKC [K43S] as the variant, how does the abundance fitness read?
Answer: The abundance fitness was -0.112 ± 0.084.

Question: For KGRRSRRCGQCPGCQVPEDCGVCTNCLDKPKFGGRNIKKQCCEMRKC [K43E], which abundance fitness is on record?
Answer: Its abundance fitness is 0.179 ± 0.14.

Question: With KGRRSRRCGQCPGCQVPEDCGVCTNCLDKPKFGGRNIKKQCCDMRKC [K43D] as the variant, how does the abundance fitness read?
Answer: Its abundance fitness is 0.018 ± 0.11.

Question: Which abundance fitness does the source give for KGRRSRRCGQCPGCQVPEDCGVCTNCLDKPKFGGRNIKKQCCPMRKC [K43P] here?
Answer: The abundance fitness was -0.85 ± 0.13.

Question: Which abundance fitness does the source give for KGRRSRRCGQCPGCQVPEDCGVCTNCLDKPKFGGRNIKKQCCHMRKC [K43H] here?
Answer: Its abundance fitness is 0.37 ± 0.14.

Question: With KGRRSRRCGQCPGCQVPEDCGVCTNCLDKPKFGGRNIKKQCCMMRKC [K43M] as the variant, how does the abundance fitness read?
Answer: The abundance fitness was -0.031 ± 0.099.

Question: With KGRRSRRCGQCPGCQVPEDCGVCTNCLDKPKFGGRNIKKQCCAMRKC [K43A] as the variant, how does the abundance fitness read?
Answer: The abundance fitness was -0.015 ± 0.087.

Question: Which abundance fitness does the source give for KGRRSRRCGQCPGCQVPEDCGVCTNCLDKPKFGGRNIKKQCCIMRKC [K43I] here?
Answer: The abundance fitness was 0.121 ± 0.12.

Question: Which abundance fitness does the source give for KGRRSRRCGQCPGCQVPEDCGVCTNCLDKPKFGGRNIKKQCCYMRKC [K43Y] here?
Answer: Its abundance fitness is 0.046 ± 0.13.

Question: With KGRRSRRCGQCPGCQVPEDCGVCTNCLDKPKFGGRNIKKQCCTMRKC [K43T] as the variant, how does the abundance fitness read?
Answer: Its abundance fitness is 0.09 ± 0.095.

Question: Which abundance fitness does the source give for KGRRSRRCGQCPGCQVPEDCGVCTNCLDKPKFGGRNIKKQCCKYRKC [M44Y] here?
Answer: The abundance fitness was -0.205 ± 0.16.

Question: With KGRRSRRCGQCPGCQVPEDCGVCTNCLDKPKFGGRNIKKQCCKARKC [M44A] as the variant, how does the abundance fitness read?
Answer: The abundance fitness was -0.012 ± 0.086.

Question: With KGRRSRRCGQCPGCQVPEDCGVCTNCLDKPKFGGRNIKKQCCKPRKC [M44P] as the variant, how does the abundance fitness read?
Answer: Its abundance fitness is -0.659 ± 0.16.

Question: Which abundance fitness does the source give for KGRRSRRCGQCPGCQVPEDCGVCTNCLDKPKFGGRNIKKQCCKKRKC [M44K] here?
Answer: The abundance fitness was -0.037 ± 0.12.

Question: Which abundance fitness does the source give for KGRRSRRCGQCPGCQVPEDCGVCTNCLDKPKFGGRNIKKQCCKNRKC [M44N] here?
Answer: Its abundance fitness is -0.253 ± 0.21.

Question: Which abundance fitness does the source give for KGRRSRRCGQCPGCQVPEDCGVCTNCLDKPKFGGRNIKKQCCKHRKC [M44H] here?
Answer: Its abundance fitness is -0.181 ± 0.15.

Question: For KGRRSRRCGQCPGCQVPEDCGVCTNCLDKPKFGGRNIKKQCCKGRKC [M44G], which abundance fitness is on record?
Answer: Its abundance fitness is -0.251 ± 0.079.

Question: Which abundance fitness does the source give for KGRRSRRCGQCPGCQVPEDCGVCTNCLDKPKFGGRNIKKQCCKERKC [M44E] here?
Answer: Its abundance fitness is 0.003 ± 0.2.

Question: With KGRRSRRCGQCPGCQVPEDCGVCTNCLDKPKFGGRNIKKQCCKVRKC [M44V] as the variant, how does the abundance fitness read?
Answer: Its abundance fitness is -0.213 ± 0.1.

Question: With KGRRSRRCGQCPGCQVPEDCGVCTNCLDKPKFGGRNIKKQCCKCRKC [M44C] as the variant, how does the abundance fitness read?
Answer: The abundance fitness was -0.484 ± 0.1.

Question: Which abundance fitness does the source give for KGRRSRRCGQCPGCQVPEDCGVCTNCLDKPKFGGRNIKKQCCKRRKC [M44R] here?
Answer: The abundance fitness was -0.023 ± 0.076.

Question: For KGRRSRRCGQCPGCQVPEDCGVCTNCLDKPKFGGRNIKKQCCKQRKC [M44Q], which abundance fitness is on record?
Answer: The abundance fitness was 0.037 ± 0.14.

Question: With KGRRSRRCGQCPGCQVPEDCGVCTNCLDKPKFGGRNIKKQCCKDRKC [M44D] as the variant, how does the abundance fitness read?
Answer: The abundance fitness was -0.242 ± 0.13.

Question: For KGRRSRRCGQCPGCQVPEDCGVCTNCLDKPKFGGRNIKKQCCKIRKC [M44I], which abundance fitness is on record?
Answer: The abundance fitness was -0.021 ± 0.14.

Question: Which abundance fitness does the source give for KGRRSRRCGQCPGCQVPEDCGVCTNCLDKPKFGGRNIKKQCCKTRKC [M44T] here?
Answer: The abundance fitness was -0.283 ± 0.1.

Question: For KGRRSRRCGQCPGCQVPEDCGVCTNCLDKPKFGGRNIKKQCCKSRKC [M44S], which abundance fitness is on record?
Answer: The abundance fitness was -0.335 ± 0.099.

Question: For KGRRSRRCGQCPGCQVPEDCGVCTNCLDKPKFGGRNIKKQCCKWRKC [M44W], which abundance fitness is on record?
Answer: The abundance fitness was -0.151 ± 0.095.
